In patent US20060100138:

How the values were obtained:
[1] = system: Synthetic human type III collagen
[2] = system: Synthetic human type I collagen
Sequence of Synthetic human type I collagen (chain, as listed by the source, chain 1 of 2): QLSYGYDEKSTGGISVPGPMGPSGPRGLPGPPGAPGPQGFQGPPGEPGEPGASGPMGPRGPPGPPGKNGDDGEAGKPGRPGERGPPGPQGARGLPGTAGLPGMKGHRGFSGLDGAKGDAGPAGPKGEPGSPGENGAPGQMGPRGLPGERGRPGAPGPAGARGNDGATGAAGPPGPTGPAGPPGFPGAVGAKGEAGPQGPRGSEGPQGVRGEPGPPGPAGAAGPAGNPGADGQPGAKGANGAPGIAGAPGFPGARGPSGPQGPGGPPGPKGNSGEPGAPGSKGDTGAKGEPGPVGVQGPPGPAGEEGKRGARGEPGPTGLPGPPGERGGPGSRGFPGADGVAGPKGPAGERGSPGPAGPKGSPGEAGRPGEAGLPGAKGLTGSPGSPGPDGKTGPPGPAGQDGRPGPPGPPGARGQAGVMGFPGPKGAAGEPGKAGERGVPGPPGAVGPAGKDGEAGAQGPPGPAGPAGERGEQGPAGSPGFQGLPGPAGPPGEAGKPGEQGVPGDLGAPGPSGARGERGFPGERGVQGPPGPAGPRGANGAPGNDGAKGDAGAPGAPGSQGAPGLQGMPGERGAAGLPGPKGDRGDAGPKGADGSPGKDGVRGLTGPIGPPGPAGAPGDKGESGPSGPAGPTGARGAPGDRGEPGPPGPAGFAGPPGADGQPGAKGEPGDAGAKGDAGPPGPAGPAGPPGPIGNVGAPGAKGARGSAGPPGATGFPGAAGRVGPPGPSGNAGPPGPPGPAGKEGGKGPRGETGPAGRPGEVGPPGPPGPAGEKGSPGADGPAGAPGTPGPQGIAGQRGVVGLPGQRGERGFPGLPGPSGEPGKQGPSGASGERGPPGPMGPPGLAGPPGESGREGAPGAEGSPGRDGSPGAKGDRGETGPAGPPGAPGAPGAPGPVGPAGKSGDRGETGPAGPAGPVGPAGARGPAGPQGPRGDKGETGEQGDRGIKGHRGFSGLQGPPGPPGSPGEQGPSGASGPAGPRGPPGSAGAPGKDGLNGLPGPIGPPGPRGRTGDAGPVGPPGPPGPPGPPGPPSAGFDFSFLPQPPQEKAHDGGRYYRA
Sequence of Synthetic human type I collagen (chain, as listed by the source, chain 2 of 2): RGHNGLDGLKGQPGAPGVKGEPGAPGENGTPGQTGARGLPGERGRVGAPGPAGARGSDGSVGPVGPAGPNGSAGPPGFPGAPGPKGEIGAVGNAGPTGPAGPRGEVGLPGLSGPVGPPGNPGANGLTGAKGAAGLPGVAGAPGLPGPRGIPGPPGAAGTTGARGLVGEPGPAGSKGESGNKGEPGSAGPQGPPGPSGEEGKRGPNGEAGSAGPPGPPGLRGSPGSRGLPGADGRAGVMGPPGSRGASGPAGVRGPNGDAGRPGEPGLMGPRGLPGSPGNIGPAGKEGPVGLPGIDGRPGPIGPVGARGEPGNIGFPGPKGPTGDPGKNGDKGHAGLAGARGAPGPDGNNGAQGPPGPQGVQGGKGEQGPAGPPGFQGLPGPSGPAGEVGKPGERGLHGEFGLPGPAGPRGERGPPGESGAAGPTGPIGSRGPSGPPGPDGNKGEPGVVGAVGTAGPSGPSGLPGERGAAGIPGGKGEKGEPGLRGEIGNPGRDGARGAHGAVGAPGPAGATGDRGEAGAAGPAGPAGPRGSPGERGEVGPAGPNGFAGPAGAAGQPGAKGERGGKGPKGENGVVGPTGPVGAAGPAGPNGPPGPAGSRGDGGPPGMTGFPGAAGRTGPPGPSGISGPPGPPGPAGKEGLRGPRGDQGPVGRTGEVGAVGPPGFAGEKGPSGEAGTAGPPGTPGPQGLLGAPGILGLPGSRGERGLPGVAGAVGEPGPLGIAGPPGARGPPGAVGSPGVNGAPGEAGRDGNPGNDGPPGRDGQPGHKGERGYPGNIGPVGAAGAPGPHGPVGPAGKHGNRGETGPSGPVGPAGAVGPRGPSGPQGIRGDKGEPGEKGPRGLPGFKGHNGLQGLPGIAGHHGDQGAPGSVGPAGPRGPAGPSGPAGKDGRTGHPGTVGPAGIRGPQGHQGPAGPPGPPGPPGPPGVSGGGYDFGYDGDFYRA

Sequence of MMP-8 (collagenase 2, neutrophil collagenase) (chain, as listed by the source): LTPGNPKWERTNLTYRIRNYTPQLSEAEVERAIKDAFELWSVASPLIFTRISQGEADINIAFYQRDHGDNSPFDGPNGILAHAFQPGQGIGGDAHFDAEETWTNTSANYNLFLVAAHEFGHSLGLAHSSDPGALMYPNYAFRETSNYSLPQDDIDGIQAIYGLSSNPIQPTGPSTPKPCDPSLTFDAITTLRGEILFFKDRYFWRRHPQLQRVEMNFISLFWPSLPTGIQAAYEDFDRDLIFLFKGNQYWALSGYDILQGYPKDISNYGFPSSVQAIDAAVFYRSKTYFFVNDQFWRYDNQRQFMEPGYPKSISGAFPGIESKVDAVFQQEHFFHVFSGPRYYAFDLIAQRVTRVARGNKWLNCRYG
Sequence of Synthetic human type III collagen (chain, as listed by the source): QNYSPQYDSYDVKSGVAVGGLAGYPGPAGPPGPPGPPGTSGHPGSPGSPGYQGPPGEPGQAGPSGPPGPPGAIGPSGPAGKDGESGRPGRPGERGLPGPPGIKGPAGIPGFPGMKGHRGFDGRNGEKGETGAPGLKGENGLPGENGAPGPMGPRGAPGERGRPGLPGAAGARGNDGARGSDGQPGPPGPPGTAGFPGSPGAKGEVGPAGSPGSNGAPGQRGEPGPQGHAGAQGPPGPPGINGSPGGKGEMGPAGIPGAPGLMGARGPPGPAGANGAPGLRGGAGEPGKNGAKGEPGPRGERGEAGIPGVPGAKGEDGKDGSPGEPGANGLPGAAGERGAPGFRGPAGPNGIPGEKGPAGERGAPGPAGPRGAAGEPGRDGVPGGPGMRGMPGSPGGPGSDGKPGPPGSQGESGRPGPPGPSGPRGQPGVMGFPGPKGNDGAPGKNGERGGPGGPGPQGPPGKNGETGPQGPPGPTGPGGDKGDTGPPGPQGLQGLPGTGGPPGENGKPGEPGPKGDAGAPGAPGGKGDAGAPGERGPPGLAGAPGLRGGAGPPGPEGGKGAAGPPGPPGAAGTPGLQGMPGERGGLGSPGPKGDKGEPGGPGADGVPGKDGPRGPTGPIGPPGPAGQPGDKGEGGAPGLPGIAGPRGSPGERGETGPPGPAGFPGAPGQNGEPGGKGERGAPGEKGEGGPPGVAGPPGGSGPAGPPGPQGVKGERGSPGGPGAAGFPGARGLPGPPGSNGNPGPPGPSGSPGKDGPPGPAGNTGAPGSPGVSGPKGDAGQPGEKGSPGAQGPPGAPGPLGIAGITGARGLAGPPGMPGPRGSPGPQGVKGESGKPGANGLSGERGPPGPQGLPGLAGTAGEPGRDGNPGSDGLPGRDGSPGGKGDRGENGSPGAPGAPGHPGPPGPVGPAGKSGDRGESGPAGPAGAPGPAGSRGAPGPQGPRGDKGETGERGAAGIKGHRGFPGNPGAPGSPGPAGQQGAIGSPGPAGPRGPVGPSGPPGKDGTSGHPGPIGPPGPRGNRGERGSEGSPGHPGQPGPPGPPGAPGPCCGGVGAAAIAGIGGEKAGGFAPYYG

## MMP-8 (collagenase 2, neutrophil collagenase)
[1]
  cleavage of collagen (SDS-PAGE after 1, 2 and 7 days at 37 C): both synthetic human type I and type III collagen were cleaved by MMP-1 (FIG. 1A) and MMP-8 (FIG. 1B)
  extent of degradation of collagen (SDS-PAGE): Synthetic human type III collagen was degraded by MMP-1 to a greater extent than by MMP-8
[2]
  cleavage of collagen (SDS-PAGE after 1, 2 and 7 days at 37 C): both synthetic human type I and type III collagen were cleaved by MMP-1 (FIG. 1A) and MMP-8 (FIG. 1B)
